Data reported in US9591845B2, “Method for treating blood, blood products and organs” (FORSCHUNGSZENTRUM JUELICH GMBH, priority 2012, dated 2017).
Non-standard residues stand in square brackets, D forms with d. No end group written: not given here.

What follows are substances tested against A-beta peptide (1-42) (Homo sapiens, UniProt P05067) (assay: ThT seeding assay). Conditions: coaggregates formed with 20 μM inhibitor, 7 days at 37° C., 10 mM NaPi pH 7.4; mixed 20:80 with fresh Aβ 20 μM, 10 μM ThT, fluorescence over 20 h.
Chain of A-beta peptide (1-42) (P05067 672-713): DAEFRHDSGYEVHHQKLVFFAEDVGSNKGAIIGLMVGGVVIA
Format: biochemical

Row | Substance | seeding effect of preformed Abeta-inhibitor coaggregates (ability to increase the rate of the aggregation of fresh Abeta / shorten the lag phase)
1 | rpitrlhtnrnr [DB1] | no seeding effect
2 | rpitrlqtheqr ([dR][dP][dI][dT][dR][dL][dQ][dT][dH][dE][dQ][dR]) [DB5] | no seeding effect
3 | rpitrlrthqnr ([dR][dP][dI][dT][dR][dL][dR][dT][dH][dQ][dN][dR]) [DB3] | no seeding effect
4 | rpittlqthqnr ([dR][dP][dI][dT][dT][dL][dQ][dT][dH][dQ][dN][dR]) [DB2] | no seeding effect
5 | rprtrlhthrnr ([dR][dP][dR][dT][dR][dL][dH][dT][dH][dR][dN][dR]) [D3] | no seeding effect
6 | rprtrlrthqnr ([dR][dP][dR][dT][dR][dL][dR][dT][dH][dQ][dN][dR]) [DB4] | no seeding effect

Same assay, conditions: inhibitor-Abeta coaggregates added to fresh Aβ 20 μM, ThT fluorescence over 20 h

Row | Substance | formation of ThT-positive Abeta aggregates in the later phase
7 | rprtrlrthqnr ([dR][dP][dR][dT][dR][dL][dR][dT][dH][dQ][dN][dR]) [DB4] | appear to reduce the formation of ThT-positive Abeta aggregates in the later phase
